Experimental findings from patent US20250215083A1 (JIANGSU HENGRUI PHARMACEUTICALS, published 2025) are described below.

Changes are numbered by the printed parent chain.

B1: PL-1 (bispecific antibody)
chain 1: not shown
chain 2: DIVLTQSPASLAVSPGQRATITCRASESVSIHGTHLMHWYQQKPGQPPKLLIYAASKLESGVPARFSGSGSGTDFTLTINPVEAEDTANYYCQQSFEDPLTFGQGTKLEIKGGGGSGIPPKIECLPIDISIDEGKVLTVASAFTGEPTPEVTWSTGGRKIHSQEQGRFHIENTDDLTTLIIKDVQKQDGGLYTLTLRNEFGSDSATVNIHIRSI
chain 3: not shown
chain 4: not shown
B2: PL-7 (bispecific antibody)
chain 1: not shown
chain 2: B1 chain 2 with A142C, L176S, I180T
chain 3: not shown
chain 4: not shown
B3: PL-5 (bispecific antibody)
chain 1: not shown
chain 2: B1 chain 2 with L176S, I180T
chain 3: not shown
chain 4: not shown
B4: PL-19 (bispecific antibody)
chain 1: not shown
chain 2: B1 chain 2 with G112R, G113T, G114V, G115A, A142C, L176S, I180T
chain 3: not shown
chain 4: not shown
B5: PL-18 (bispecific antibody)
chain 1: not shown
chain 2: B1 chain 2 with G112R, G113T, G114V, G115A, V136C, L176S, I180T
chain 3: not shown
chain 4: not shown
B6: PL-11 (bispecific antibody)
chain 1: not shown
chain 2: B1 chain 2 with G112R, G113T, G114V, G115A, L176S, I180T
chain 3: not shown
chain 4: not shown
B7: PL-6 (bispecific antibody)
chain 1: not shown
chain 2: B1 chain 2 with V136C, L176S, I180T
chain 3: not shown
chain 4: not shown
B8: PL-17 (bispecific antibody)
chain 1: not shown
chain 2: B1 chain 2 with G112R, G113T, G114V, G115A, L176S, I180T
chain 3: not shown
chain 4: not shown
B9: PL-13 (bispecific antibody)
chain 1: not shown
chain 2: B1 chain 2 with G112R, G113T, G114V, G115A, A142C, L176S, I180T
chain 3: not shown
chain 4: not shown
B10: PL-9 (bispecific antibody)
chain 1: not shown
chain 2: B1 chain 2 with V136C, L176S, I180T
chain 3: not shown
chain 4: not shown
B11: PL-3 (bispecific antibody)
chain 1: not shown
chain 2: B1 chain 2 with V136C, L176S, I180T
chain 3: not shown
chain 4: not shown
B12: PL-15 (bispecific antibody)
chain 1: not shown
chain 2: B1 chain 2 with G112R, G113T, G114V, G115A, V136C, L176S, I180T
chain 3: not shown
chain 4: not shown
B13: PL-4 (bispecific antibody)
chain 1: not shown
chain 2: B1 chain 2 with A142C, L176S, I180T
chain 3: not shown
chain 4: not shown
B14: PL-2 (bispecific antibody)
chain 1: not shown
chain 2: B1 chain 2 with L176S, I180T
chain 3: not shown
chain 4: not shown
B15: PL-12 (bispecific antibody)
chain 1: not shown
chain 2: B1 chain 2 with G112R, G113T, G114V, G115A, V136C, L176S, I180T
chain 3: not shown
chain 4: not shown
B16: PL-8 (bispecific antibody)
chain 1: not shown
chain 2: B1 chain 2 with L176S, I180T
chain 3: not shown
chain 4: not shown
B17: PL-10 (bispecific antibody)
chain 1: not shown
chain 2: B1 chain 2 with A142C, L176S, I180T
chain 3: not shown
chain 4: not shown
B18: PL-14 (bispecific antibody)
chain 1: not shown
chain 2: B1 chain 2 with G112R, G113T, G114V, G115A, L176S, I180T
chain 3: not shown
chain 4: not shown
B19: F11-16 (bispecific antibody)
heavy: not shown
light: DIQMTQSPSSVSASVGDRVTITCKASQNVGSNVAWYQQKPGKSPKALIYSASYRYSGVPSRFSGSGSGTDFTLTISSLQPEDFAEYYCHQYNSYPPTFGQGTKLEIKRTVAAPSVFIFPPSDEQLKSGTASVVCLLNNFYPREAKVQWKVDNALQSGNSQESVTEQDSKDSTYSLSSTLTLSKADYEKHKVYACEVTHQGLSSPVTKSFNRGEC
notes: formula 11
B20: F4-4 (bispecific antibody)
heavy 1: not shown
light 1: not shown
heavy 2: EVQLVESGGGLVQPGGSLRLSCAASGFTFTDYYLSWVKQAPGKGLEWVAFIRNRAKGYTTEYSASVKGRFTISRDNSKNSLYLQMNSLRAEDTAVYYCARMGGKGWHFDVWGQGTTVTVSSASTKGPSVFPLAPSSKSTSGGTAALGCLVKDYFPEPVTVSWNSGALTSGVHTFPAVLQSSGLYSLSSVVTVPSSSLGTQTYICNVNHKPSNTKVDKKVEPKSCDKTHTCPPCPAPEAAGGPSVFLFPPKPKDTLMISRTPEVTCVVVDVSHEDPEVKFNWYVDGVEVHNAKTKPREEQYNSTYRVVSVLTVLHQDWLNGKEYKCKVSNKALPAPIEKTISKAKGQPREPQVCTLPPSRDELTKNQVSLSCAVKGFYPSDIAVEWESNGQPENNYKTTPPVLDSDGSFFLVSKLTVDKSRWQQGNVFSCSVMHEALHNHYTQKSLSLSPGK
light 2: DVVMTQSPLSLPVTPGEPASISCRSSQSIVHSNRNTYLEWYLQKPGQSPKLLIYKVSNRFSGVPDRFFGSGSGTDFTLKINRVEAEDVGVYYCFQGSHVPFTFGGGTKVEIKRTVAAPSVFIFPPSDEQLKSGTASVVCLLNNFYPREAKVQWKVDNALQSGNSQESVTEQDSKDSTYSLSSTLTLSKADYEKHKVYACEVTHQGLSSPVTKSFNRGEC
notes: formula 4
B21: F4-5 (bispecific antibody)
heavy 1: not shown
light 1: not shown
heavy 2: B20 heavy 2 with S77A, K78Q
light 2: B20 light 2
notes: formula 4
B22: F2-3 (bispecific antibody)
heavy 1: not shown
light 1: B19 light with S43A, E85T
heavy 2: not shown
light 2: not shown
B23: F4-7 (bispecific antibody)
heavy 1: not shown
light 1: not shown
heavy 2: EVQLVQSGAEVKKPGASVKVSCKASGYSFTGYTMNWVRQAPGKRPEWMGLINPYTGGTRNNQKFKDRVTLTVDKSASTAYMELSSLRSEDTAVYYCTRWGLRLAMDYWGQGTTVTVSSASTKGPSVFPLAPSSKSTSGGTAALGCLVKDYFPEPVTVSWNSGALTSGVHTFPAVLQSSGLYSLSSVVTVPSSSLGTQTYICNVNHKPSNTKVDKKVEPKSCDKTHTCPPCPAPEAAGGPSVFLFPPKPKDTLMISRTPEVTCVVVDVSHEDPEVKFNWYVDGVEVHNAKTKPREEQYNSTYRVVSVLTVLHQDWLNGKEYKCKVSNKALPAPIEKTISKAKGQPREPQVCTLPPSRDELTKNQVSLSCAVKGFYPSDIAVEWESNGQPENNYKTTPPVLDSDGSFFLVSKLTVDKSRWQQGNVFSCSVMHEALHNHYTQKSLSLSPGK
light 2: B19 light with S43A, E85T
B24: F2-2 (bispecific antibody)
heavy 1: not shown
light 1: DVVLTQSPLSLPVTLGQPASISCKSSQSLLHSSGKTYLNWLLQRPGQSPRRLIYLVSKLDSGVPDRFSGSGSGTDFTLKISRVEAEDVGVYYCAQGTHFPRTFGGGTKVEIKRTVAAPSVFIFPPSDEQLKSGTASVVCLLNNFYPREAKVQWKVDNALQSGNSQESVTEQDSKDSTYSLSSTLTLSKADYEKHKVYACEVTHQGLSSPVTKSFNRGEC
heavy 2: not shown
light 2: not shown

T1 sequence (Q9NZQ7 19-238 limits assumed): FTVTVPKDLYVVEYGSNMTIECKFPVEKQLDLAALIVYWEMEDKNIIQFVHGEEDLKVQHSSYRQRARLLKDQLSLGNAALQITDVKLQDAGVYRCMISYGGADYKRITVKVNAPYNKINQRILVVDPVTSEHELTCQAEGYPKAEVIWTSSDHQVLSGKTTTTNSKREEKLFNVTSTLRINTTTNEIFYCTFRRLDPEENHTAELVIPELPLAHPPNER

One assay concerns the target T1, hPDL1 (human, UniProt Q9NZQ7 19-238).
T1 construct: purchased from Sino biology
The assay is described as follows: ELISA per WO2021139758 Test Example 4.
Usually EC50 stands for the concentration giving half of the maximal effect. Turning to B1, the concentration for a half-maximal effect (EC50) amounted to 1.6 nM.
For B2, it took 0.5 nM to reach a half-maximal effect (EC50).
The same measure, in the same setting: as for B3, the figure is 0.7 nM.
The same measure, in the same setting: as for B4, the figure is 1.6 nM; as for B5, 1.6 nM; as for B6, 0.6 nM.
B7: the EC50 was found to be 0.8 nM.
Still for that read-out and setting: next, B8: 1.4 nM.
The molecule B9 had an EC50 of 0.5 nM.
Same read-out and setting: as for B10, the figure is 0.6 nM; as for B11, 0.6 nM.
Molecule B12 displayed an EC50 of 1.4 nM.
Still for that read-out and setting: as for B13, the figure is 0.7 nM.
The same measure, in the same setting: next, B14: 0.5 nM.
On the same count and under the same terms, next, B15: 0.5 nM; B16: 1.4 nM; B17: 0.6 nM.
For B18, the EC50 was 1.3 nM.

The target in the next assay is T2, hCTLA4 (human, UniProt P16410 36-161).
T2 construct: purchased from Sino biology
T2 sequence (P16410 36-161 limits assumed): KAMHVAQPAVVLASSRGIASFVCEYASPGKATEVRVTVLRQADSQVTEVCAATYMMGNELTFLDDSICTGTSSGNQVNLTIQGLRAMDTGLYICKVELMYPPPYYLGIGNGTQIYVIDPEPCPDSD
The assay is described as follows: ELISA per WO2021139758 Test Example 4. Background: ELISA stands for enzyme-linked immunosorbent assay.
Consider B1, for which it took 16.5 nM to reach a half-maximal effect (EC50).
Still for that read-out and setting: as for B2, the figure is 7.3 nM; as for B3, 6.7 nM.
Still for that read-out and setting: next, B4: 6.5 nM; B5: 6.7 nM; B6: 5.6 nM.
On the same count and under the same terms, as for B7, the figure is 5.3 nM; as for B8, 6.2 nM.
B9 had an EC50 of 4.4 nM.
The molecule B10 had an EC50 of 5.5 nM.
On to B11, for which the EC50 stood at 7.9 nM.
The same measure, in the same setting: next, B12: 3.2 nM; B13: 6.5 nM.
Same read-out and setting: next, B14: 8 nM.
Molecule B15 returned an EC50 of 8 nM.
B16 came in with an EC50 of 14.5 nM.
On the same count and under the same terms, as for B17, the figure is 6.9 nM; as for B18, 6 nM.

Another assay deals with T3, cynomolgus monkey GPRC5D (cynomolgus monkey).
T3 construct: whole, on cells; also called CynoGPRC5D; cynoGPRC5D
The assay can be described thus: FACS, CHOK1-cynoGPRC5D cells. As for the experimental part: (§1) To test the capacity of the GPRC5D/CD3 bispecific antibodies of the present disclosure to bind to GPRC5D, a flow cytometry assay was used in this test example to measure the capacity of the GPRC5D/CD3 bispecific antibodies to bind to the human multiple myeloma cell line MM.1R (ATCC® CRL-2975), which expresses GPRC5D, and to a stably transfected cell strain CHOK1-cynoGPRC5D, which expresses cynomolgus monkey GPRC5D. The specific procedure was as follows: The cells described above were cultured in complete culture medium containing 10% FBS, incubated in a 37° C., 5% CO₂ incubator for 2 days, and added to a cell plate at 1×10⁵ cells/well. The plate was centrifuged at 300 g for 5 min and washed once with 1% BSA. The antibodies were serially diluted to 8 concentrations and added to the cell plate at 100 μL/well. The plate was incubated at 4° C. for 1 h and washed once with 1% BSA. […] The plate was washed three times with 1% BSA, PBS was added at 100 μL/well, and plate reading was performed.
Molecule B19 gave an EC50 of 2.95 nM and a Max of 25200.
For B20 the same measures were 3.15 nM and 74900.
B21 came in with an EC50 of 3.16 nM and a Max of 71300.

The next assay deals with T3, cynomolgus monkey GPRC5D. The assay can be described thus: FACS, CHOK1-cynoGPRC5D cells. The source holds these as a separate data set. As for the experimental part:
as §1
(In general: A flow cytometer gives signals particle by particle.)
The molecule B19 came in with an EC50 of 2.95 nM.
Still for that read-out and setting: next, B20: 3.15 nM.
Molecule B21 came in with an EC50 of 3.16 nM.

For a further assay, the target named is T4, human GPRC5D (human, UniProt Q9NZD1 1-345).
T4 construct: whole, on cells; also called membrane surface GPRC5D
T4 sequence (Q9NZD1 whole entry): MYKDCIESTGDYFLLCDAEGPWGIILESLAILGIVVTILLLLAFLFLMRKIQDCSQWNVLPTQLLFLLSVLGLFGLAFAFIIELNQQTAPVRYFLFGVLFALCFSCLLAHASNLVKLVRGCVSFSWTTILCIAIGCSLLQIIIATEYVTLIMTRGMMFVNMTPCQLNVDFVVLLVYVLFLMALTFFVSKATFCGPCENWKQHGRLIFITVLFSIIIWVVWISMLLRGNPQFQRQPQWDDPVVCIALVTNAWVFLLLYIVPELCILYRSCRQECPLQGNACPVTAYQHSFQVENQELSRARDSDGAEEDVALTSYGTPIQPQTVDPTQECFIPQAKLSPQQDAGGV
The assay can be described thus: FACS, MM.1R cells. As for the experimental part:
as §1
B19 displayed an EC50 of 0.94 nM and a Max of 678.
Regarding B20, the EC50 is 12.1 nM and the Max worked out at 13600.
The molecule B21 showed an EC50 of 12.8 nM and a Max of 13400.

A further assay has as its target T4, human GPRC5D. The assay can be described thus: FACS, MM.1R cells. The source holds these as a separate data set. As for the experimental part:
as §1
As for B19, the EC50 came out at 0.94 nM.
In the case of B20, it took 12.1 nM to reach a half-maximal effect (EC50).
Same read-out and setting: as for B21, the figure is 12.8 nM.

The next assay has as its target T4, human GPRC5D. The assay can be described thus: cell-based or functional assay.
Turning to B22, the “EC50 ratio (relative to JNJ-64407564), cytotoxic activity against NCI-H929” value was determined as 0.08 and the “Lysis rate %, cytotoxic activity against NCI-H929” value is 61.5%.
Turning to B23, the “EC50 ratio (relative to JNJ-64407564), cytotoxic activity against NCI-H929” value was determined as 0.16 and the “Lysis rate %, cytotoxic activity against NCI-H929” value stood at 68.3%.
For B24 the same measures were 0.26 and 64.3%.
